Assay results taken from patent publication US20200317768A1 (published 2020).

T1: human FcγRIIb extracellular domain, C-terminal His-tag (human, UniProt P31994 43-217)
T1 construct: also called human FcgRIIb; FcgRIIb
T1 sequence: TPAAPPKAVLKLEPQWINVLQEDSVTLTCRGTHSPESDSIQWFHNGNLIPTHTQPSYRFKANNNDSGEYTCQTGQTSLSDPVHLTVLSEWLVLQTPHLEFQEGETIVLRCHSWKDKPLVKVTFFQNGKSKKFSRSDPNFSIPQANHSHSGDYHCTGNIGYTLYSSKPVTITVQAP


target: T1, human FcγRIIb extracellular domain, …; assay: SPR (Biacore); KD of SG1 / KD of variant;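 note: relative to parent M103205H795-SG1 carrying the SG1 human heavy chain constant region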

Binder | KD fold (SG1 = 1) [fold]
MS_M103205H795-SG1/M103202L889-SK1 (antibody, human IgG1, kappa, Parent of the Fc variants; also called MS1032LO06-SG1) heavy: not shown light: DIVMTQSPATLSLSPGERATLSCTSSQSVYHANWLSWFQQKPGQPPKLLIYWASTLAYGVPSRFSGSGSGTDFTLTISSLQPEDAATYYCAGGYGGGRYAFGQGTKVEIKRTVAAPSVFIFPPSDEQLKSGTASVVCLLNNFYPREAKVQWKVDNALQSGNSQESVTEQDSKDSTYSLSSTLTLSKADYEKHKVYACEVTHQGLSSPVTKSFNRGEC | 1
M103205H795-MY001/M103202L889-SK1 (antibody, human IgG1, kappa, Substitutions introduced into M103205H795-SG1; expressed with M103202L889-SK1 as light chain) heavy: not shown light: DIVMTQSPATLSLSPGERATLSCTSSQSVYHANWLSWFQQKPGQPPKLLIYWASTLAYGVPSRFSGSGSGTDFTLTISSLQPEDAATYYCAGGYGGGRYAFGQGTKVEIKRTVAAPSVFIFPPSDEQLKSGTASVVCLLNNFYPREAKVQWKVDNALQSGNSQESVTEQDSKDSTYSLSSTLTLSKADYEKHKVYACEVTHQGLSSPVTKSFNRGEC | 0.6
M103205H795-MY052/M103202L889-SK1 (antibody, human IgG1, kappa, Substitutions introduced into M103205H795-SG1; expressed with M103202L889-SK1 as light chain) heavy: QVTLKESGPVLVKPTETLTLTCTVSGIDLSHDDISWVRQAPGKGLEWVGIISYAGSTYYASWAKGRLTISKDTSKNQVVLTMTNMDPVDTATYYCARGVPAYSHGGDLWGQGTLVTVSSASTKGPSVFPLAPSSKSTSGGTAALGCLVKDYFPEPVTVSWNSGALTSGVHTFPAVLQSSGLYSLSSVVTVPSSSLGTQTYICNVNHKPSNTKVDKKVEPKSCDKTHTCPPCPAPELLNGPSVFLFPPKPKDTLMISRTPEVTCVVVDVSEEDPEVKFNWYVDGVEVHNAKTKPREEQYNSTYRVVSVLTVLHQDWLNGKEYKCKVSNKALPAPIEKTISKAKGQPREPQVYTLPPSREEMTKNQVSLTCLVKGFYPSDIAVEWESNGQPENNYKTTPMVLDSDGSFFLYSKLTVDKSRWQQGNVFSCSVMHEALHNHYTQKSLSLSP light: DIVMTQSPATLSLSPGERATLSCTSSQSVYHANWLSWFQQKPGQPPKLLIYWASTLAYGVPSRFSGSGSGTDFTLTISSLQPEDAATYYCAGGYGGGRYAFGQGTKVEIKRTVAAPSVFIFPPSDEQLKSGTASVVCLLNNFYPREAKVQWKVDNALQSGNSQESVTEQDSKDSTYSLSSTLTLSKADYEKHKVYACEVTHQGLSSPVTKSFNRGEC | 6.4
M103205H795-MY101/M103202L889-SK1 (antibody, human IgG1, kappa, also called MS1032LO06-MY101) heavy: QVTLKESGPVLVKPTETLTLTCTVSGIDLSHDDISWVRQAPGKGLEWVGIISYAGSTYYASWAKGRLTISKDTSKNQVVLTMTNMDPVDTATYYCARGVPAYSHGGDLWGQGTLVTVSSASTKGPSVFPLAPSSKSTSGGTAALGCLVKDYFPEPVTVSWNSGALTSGVHTFPAVLQSSGLYSLSSVVTVPSSSLGTQTYICNVNHKPSNTKVDKKVEPKSCDKTHTCPPCPAPELLNGPSVFLFPPKPKDTLMISRTPEVTCVVVDVSEEDPEVKFNWYVDGVEVHNAKTKPREEQYNSTYRVVSVLTVLHQDWLNGKEYKCKVSNKALPKPIEKTISKAKGQPREPQVYTLPPSREEMTKNQVSLTCLVKGFYPSDIAVEWESNGQPENNYKTTPMVLDSDGSFFLYSKLTVDKSRWQQGNVFSCSVMHEALHNHYTQKSLSLSP light: DIVMTQSPATLSLSPGERATLSCTSSQSVYHANWLSWFQQKPGQPPKLLIYWASTLAYGVPSRFSGSGSGTDFTLTISSLQPEDAATYYCAGGYGGGRYAFGQGTKVEIKRTVAAPSVFIFPPSDEQLKSGTASVVCLLNNFYPREAKVQWKVDNALQSGNSQESVTEQDSKDSTYSLSSTLTLSKADYEKHKVYACEVTHQGLSSPVTKSFNRGEC | 9.4
M103205H795-MY051/M103202L889-SK1 (antibody, human IgG1, kappa, Substitutions introduced into M103205H795-SG1; expressed with M103202L889-SK1 as light chain) heavy: QVTLKESGPVLVKPTETLTLTCTVSGIDLSHDDISWVRQAPGKGLEWVGIISYAGSTYYASWAKGRLTISKDTSKNQVVLTMTNMDPVDTATYYCARGVPAYSHGGDLWGQGTLVTVSSASTKGPSVFPLAPSSKSTSGGTAALGCLVKDYFPEPVTVSWNSGALTSGVHTFPAVLQSSGLYSLSSVVTVPSSSLGTQTYICNVNHKPSNTKVDKKVEPKSCDKTHTCPPCPAPELLNGPSVFLFPPKPKDTLMISRTPEVTCVVVDVSEEDGEVKFNWYVDGVEVHNAKTKPREEQYNSTYRVVSVLTVLHQDWLNGKEYKCKVSNKALPAPIEKTISKAKGQPREPQVYTLPPSREEMTKNQVSLTCLVKGFYPSDIAVEWESNGQPENNYKTTPPVLDSDGSFFLYSKLTVDKSRWQQGNVFSCSVMHEALHNHYTQKSLSLSP light: DIVMTQSPATLSLSPGERATLSCTSSQSVYHANWLSWFQQKPGQPPKLLIYWASTLAYGVPSRFSGSGSGTDFTLTISSLQPEDAATYYCAGGYGGGRYAFGQGTKVEIKRTVAAPSVFIFPPSDEQLKSGTASVVCLLNNFYPREAKVQWKVDNALQSGNSQESVTEQDSKDSTYSLSSTLTLSKADYEKHKVYACEVTHQGLSSPVTKSFNRGEC | 2.3

The remaining lines, values ahead:

KD fold (SG1 = 1) [fold] | Binder
14.4 | M103205H795-MY115/M103202L889-SK1 (antibody, human IgG1, kappa, Substitutions introduced into M103205H795-SG1; expressed with M103202L889-SK1 as light chain) heavy: QVTLKESGPVLVKPTETLTLTCTVSGIDLSHDDISWVRQAPGKGLEWVGIISYAGSTYYASWAKGRLTISKDTSKNQVVLTMTNMDPVDTATYYCARGVPAYSHGGDLWGQGTLVTVSSASTKGPSVFPLAPSSKSTSGGTAALGCLVKDYFPEPVTVSWNSGALTSGVHTFPAVLQSSGLYSLSSVVTVPSSSLGTQTYICNVNHKPSNTKVDKKVEPKSCDKTHTCPPCPAPELLNGPSVFLFPPKPKDTLMISRTPEVTCVVVDVAEEDPEVKFNWYVDGVEVHNAKTKPREEQYNSTYRVVSVLTVLHQDWLNGKEYKCKVSNKALPAPIEKTISKAKGQPREPQVYTLPPSREEMTKNQVSLTCLVKGFYPSDIAVEWESNGQPENNYKTTPMVLDSDGSFFLYSKLTVDKSRWQQGNVFSCSVMHEALHNHYTQKSLSLSP light: DIVMTQSPATLSLSPGERATLSCTSSQSVYHANWLSWFQQKPGQPPKLLIYWASTLAYGVPSRFSGSGSGTDFTLTISSLQPEDAATYYCAGGYGGGRYAFGQGTKVEIKRTVAAPSVFIFPPSDEQLKSGTASVVCLLNNFYPREAKVQWKVDNALQSGNSQESVTEQDSKDSTYSLSSTLTLSKADYEKHKVYACEVTHQGLSSPVTKSFNRGEC
1.4 | M103205H795-MY048/M103202L889-SK1 (antibody, human IgG1, kappa, Substitutions introduced into M103205H795-SG1; expressed with M103202L889-SK1 as light chain) heavy: not shown light: DIVMTQSPATLSLSPGERATLSCTSSQSVYHANWLSWFQQKPGQPPKLLIYWASTLAYGVPSRFSGSGSGTDFTLTISSLQPEDAATYYCAGGYGGGRYAFGQGTKVEIKRTVAAPSVFIFPPSDEQLKSGTASVVCLLNNFYPREAKVQWKVDNALQSGNSQESVTEQDSKDSTYSLSSTLTLSKADYEKHKVYACEVTHQGLSSPVTKSFNRGEC
6.1 | M103205H795-MY050/M103202L889-SK1 (antibody, human IgG1, kappa, Substitutions introduced into M103205H795-SG1; expressed with M103202L889-SK1 as light chain) heavy: QVTLKESGPVLVKPTETLTLTCTVSGIDLSHDDISWVRQAPGKGLEWVGIISYAGSTYYASWAKGRLTISKDTSKNQVVLTMTNMDPVDTATYYCARGVPAYSHGGDLWGQGTLVTVSSASTKGPSVFPLAPSSKSTSGGTAALGCLVKDYFPEPVTVSWNSGALTSGVHTFPAVLQSSGLYSLSSVVTVPSSSLGTQTYICNVNHKPSNTKVDKKVEPKSCDKTHTCPPCPAPELLNGPSVFLFPPKPKDTLMISRTPEVTCVVVDVAEEDPEVKFNWYVDGVEVHNAKTKPREEQYNSTYRVVSVLTVLHQDWLNGKEYKCKVSNKALPAPIEKTISKAKGQPREPQVYTLPPSREEMTKNQVSLTCLVKGFYPSDIAVEWESNGQPENNYKTTPPVLDSDGSFFLYSKLTVDKSRWQQGNVFSCSVMHEALHNHYTQKSLSLSP light: DIVMTQSPATLSLSPGERATLSCTSSQSVYHANWLSWFQQKPGQPPKLLIYWASTLAYGVPSRFSGSGSGTDFTLTISSLQPEDAATYYCAGGYGGGRYAFGQGTKVEIKRTVAAPSVFIFPPSDEQLKSGTASVVCLLNNFYPREAKVQWKVDNALQSGNSQESVTEQDSKDSTYSLSSTLTLSKADYEKHKVYACEVTHQGLSSPVTKSFNRGEC
1.2 | M103205H795-MY047/M103202L889-SK1 (antibody, human IgG1, kappa, Substitutions introduced into M103205H795-SG1; expressed with M103202L889-SK1 as light chain) heavy: not shown light: DIVMTQSPATLSLSPGERATLSCTSSQSVYHANWLSWFQQKPGQPPKLLIYWASTLAYGVPSRFSGSGSGTDFTLTISSLQPEDAATYYCAGGYGGGRYAFGQGTKVEIKRTVAAPSVFIFPPSDEQLKSGTASVVCLLNNFYPREAKVQWKVDNALQSGNSQESVTEQDSKDSTYSLSSTLTLSKADYEKHKVYACEVTHQGLSSPVTKSFNRGEC
8.1 | M103205H795-MY105/M103202L889-SK1 (antibody, human IgG1, kappa, Substitutions introduced into M103205H795-SG1; expressed with M103202L889-SK1 as light chain) heavy: QVTLKESGPVLVKPTETLTLTCTVSGIDLSHDDISWVRQAPGKGLEWVGIISYAGSTYYASWAKGRLTISKDTSKNQVVLTMTNMDPVDTATYYCARGVPAYSHGGDLWGQGTLVTVSSASTKGPSVFPLAPSSKSTSGGTAALGCLVKDYFPEPVTVSWNSGALTSGVHTFPAVLQSSGLYSLSSVVTVPSSSLGTQTYICNVNHKPSNTKVDKKVEPKSCDKTHTCPPCPAPELLNGPVVFLFPPKPKDTLMISRTPEVTCVVVDVSEEDPEVKFNWYVDGVEVHNAKTKPREEQYNSTYRVVSVLTVLHQDWLNGKEYKCKVSNKALPAPIEKTISKAKGQPREPQVYTLPPSREEMTKNQVSLTCLVKGFYPSDIAVEWESNGQPENNYKTTPMVLDSDGSFFLYSKLTVDKSRWQQGNVFSCSVMHEALHNHYTQKSLSLSP light: DIVMTQSPATLSLSPGERATLSCTSSQSVYHANWLSWFQQKPGQPPKLLIYWASTLAYGVPSRFSGSGSGTDFTLTISSLQPEDAATYYCAGGYGGGRYAFGQGTKVEIKRTVAAPSVFIFPPSDEQLKSGTASVVCLLNNFYPREAKVQWKVDNALQSGNSQESVTEQDSKDSTYSLSSTLTLSKADYEKHKVYACEVTHQGLSSPVTKSFNRGEC
3.1 | M103205H795-MY049/M103202L889-SK1 (antibody, human IgG1, kappa, Substitutions introduced into M103205H795-SG1; expressed with M103202L889-SK1 as light chain) heavy: not shown light: DIVMTQSPATLSLSPGERATLSCTSSQSVYHANWLSWFQQKPGQPPKLLIYWASTLAYGVPSRFSGSGSGTDFTLTISSLQPEDAATYYCAGGYGGGRYAFGQGTKVEIKRTVAAPSVFIFPPSDEQLKSGTASVVCLLNNFYPREAKVQWKVDNALQSGNSQESVTEQDSKDSTYSLSSTLTLSKADYEKHKVYACEVTHQGLSSPVTKSFNRGEC
